Molecular target: human CD200 activation receptors (CD200AR) (human)
Experiment: cell-based or functional assay

B1: human CD200AR-L peptide P4A10 (peptide)
peptide: Ac-CLFNTFGFGAISGTA-NH2
T-cell secretion of IFNγ after treatment of iDCs with P4A10: 5.4 fold
T-cell secretion of IL6 after treatment of iDCs with P4A10: 5.6 fold
T-cell secretion of RANTES after treatment of iDCs with P4A10: 16.3 fold
T-cell secretion of TNFα after treatment of iDCs with P4A10: 16.6 fold

— patent US20220088134A1 (REGENTS OF THE UNIVERSITY OF MINNESOTA, published 2022)
